Reference: patent publication US20230357367A1
Read-outs that look alike come from different tables or passages of the source.

Key:
Test in all cases: cell-based or functional assay
[1] = target: SARS-CoV-2 Omicron BA.4/5+K444T Spike on pseudovirus (SARS-CoV-2)
[2] = target: spike (SARS-CoV-2, D614G) (SARS-CoV-2) (UniProt P0DTC2)
[3] = target: spike (SARS-CoV-2, D614G) (SARS-CoV-2) (UniProt P0DTC2); remark: listed apart in the source
[4] = target: spike (SARS-CoV-2, D614G) (SARS-CoV-2) (UniProt P0DTC2); remark: listed apart in the source
[5] = target: spike (SARS-CoV-2, D614G) (SARS-CoV-2) (UniProt P0DTC2); remark: listed apart in the source
[6] = target: spike (SARS-CoV-2, D614G) (SARS-CoV-2) (UniProt P0DTC2); remark: listed apart in the source
[7] = target: spike (SARS-CoV-2, BA.1.1 P1162S) (SARS-CoV-2)
[8] = target: spike (SARS-CoV-2, BA.5.8 P1162L) (SARS-CoV-2)

Bebtelovimab (antibody) showed a Neutralization - IC50, pseudovirus [1] of 1220 ng/mL.
With sotrovimab VH/VL-hamIgG2a (antibody) the EC50, pseudovirus neutralization, Vero E6 [2] was 8.51 ng/mL.
With “Sotrovimab VH/VL (human IgG1 molecule expressing the same variable regions of Sotrovimab) (antibody)” the Neutralization - IC50, pseudovirus [1] was 304 ng/mL.
Work on sotrovimab VH/VL-huIgG1-LS (antibody) yielded an EC50, pseudovirus neutralization, Vero E6 [2] of 35.2 ng/mL, an EC50, pseudovirus neutralization, Vero E6, with isotype [3] of 14 ng/mL and an EC80, pseudovirus neutralization, Vero E6, with isotype [4] of 69 ng/mL. For the same substance, the EC90, pseudovirus neutralization, Vero E6, with isotype [5] was 170 ng/mL and the Emax, pseudovirus neutralization, Vero E6, with isotype (% neutralization) [6] was 98.3.
For bebtelovimab (antibody), the EC50, pseudovirus neutralization [7] was 0.12 ng/mL, the EC80, pseudovirus neutralization [7] was 1.4 ng/mL and the EC90, pseudovirus neutralization [7] was 6 ng/mL. The Emax, pseudovirus neutralization (% neutralization) [7] was 100, the EC50, pseudovirus neutralization [8] was 0.13 ng/mL and the EC80, pseudovirus neutralization [8] was 1.1 ng/mL. The EC90, pseudovirus neutralization [8] was 3.7 ng/mL, the Emax, pseudovirus neutralization (% neutralization) [8] was 99.9 and the EC50, pseudovirus neutralization [2] was 0.57 ng/mL. For the same substance, the EC50, pseudovirus neutralization, TMPRSS2-Vero E6, with isotype [2] was 1.7 ng/mL, the EC50, pseudovirus neutralization, Vero E6, with isotype [2] was 0.64 ng/mL and the EC80, pseudovirus neutralization [2] was 4.9 ng/mL. It also gave an EC80, pseudovirus neutralization, TMPRSS2-Vero E6, with isotype [2] of 11 ng/mL, an EC80, pseudovirus neutralization, Vero E6, with isotype [2] of 2.7 ng/mL and an EC90, pseudovirus neutralization [2] of 18 ng/mL. It also gave an EC90, pseudovirus neutralization, TMPRSS2-Vero E6, with isotype [2] of 32 ng/mL, an EC90, pseudovirus neutralization, Vero E6, with isotype [2] of 6.1 ng/mL and an Emax, pseudovirus neutralization (% neutralization) [2] of 99.9. The Emax, pseudovirus neutralization, TMPRSS2-Vero E6, with isotype (% neutralization) [2] was 99.4, the Emax, pseudovirus neutralization, Vero E6, with isotype (% neutralization) [2] was 99.4 and the EC50, pseudovirus neutralization, Vero E6, with isotype [3] was 0.29 ng/mL. For the same substance, the EC80, pseudovirus neutralization, Vero E6, with isotype [4] was 2.9 ng/mL, the EC90, pseudovirus neutralization, Vero E6, with isotype [5] was 11 ng/mL and the Emax, pseudovirus neutralization, Vero E6, with isotype (% neutralization) [6] was 99.7.
sotrovimab VH/VL-huIgG1 (antibody) showed an EC50, pseudovirus neutralization, Vero E6 [2] of 27.9 ng/mL.
